Experimental data taken from patent publication US20230357364A1.

Assays:
[1] = biological target: SARS-CoV-2 spike on pseudovirus or live virus (USA-WA1/2020, WT) (SARS-CoV-2) (UniProt P0DTC2); experiment: cell-based or functional assay
[2] = biological target: SARS-CoV-1 spike on pseudovirus (SARS-CoV-1) (UniProt P59594); experiment: cell-based or functional assay

REGN10987 (antibody)
PSV in HeLa-ACE2 cells IC50 [1]: 93 ng/mL | live virus IC50 (HeLa-ACE2) [1]: 5 ng/mL | live virus IC50 (Vero) [1]: 1 ng/mL | PSV in HeLa-ACE2 cells IC50 [2]: > 25000 ng/mL

REGN10933 (antibody)
PSV in HeLa-ACE2 cells IC50 [1]: 6 ng/mL | live virus IC50 (HeLa-ACE2) [1]: 2 ng/mL | live virus IC50 (Vero) [1]: 1 ng/mL | PSV in HeLa-ACE2 cells IC50 [2]: > 25000 ng/mL
